Measured values from the MegaScale stability set (Tsuboyama et al. 2023).

B1: EEHEE_rd4_0363 (parent)
chain: VTVDIKGMEYHFDNPEEAKKFAERMAKELGGELKVENGTLKVE
B2: HEEH_KT_rd6_3632 (parent)
chain: DAEELIELVERALKEGREIILLGVRITSEEAGKWFIEWIRRFL

Variants of: B1
Assay: folding stability dG (cDNA display proteolysis); higher = more stable
Conditions: PBS, room temperature

| Variant | folding stability dG [kcal/mol] |
| --- | --- |
| E43D | 1.91 |
| E43F | 2.75 |
| E43G | 1.91 |
| E43H | 2.21 |
| E43I | 3.07 |
| E43K | 1.89 |
| E43L | 2.66 |
| E43M | 2.49 |
| E43N | 1.85 |
| E43P | 1.16 |
| E43Q | 2.07 |
| E43R | 2.04 |
| E43S | 2.11 |
| E43T | 2.38 |
| E43V | 3.14 |
| E43W | 2.64 |
| E43Y | 2.91 |

Variants of: B2
Assay: as above
Conditions: PBS, room temperature

| Variant | folding stability dG [kcal/mol] |
| --- | --- |
| E15V | 3.57 |
| F35P | 2.34 |
| E37Y | 3.92 |
| E4C | 4.61 |
| G16N | 3.58 |
| A31I | 4.34 |
| E18V | 3.91 |
| R11I | 3.62 |
| I39Y | 3.43 |
| L8K | 3.46 |
| S28V | 3.57 |
| R41D | 3.05 |
| E15F | 3.64 |
| G16F | 3.97 |
| E10M | 3.84 |
| R25N | 3.44 |
| S28A | 3.52 |
| I6N | 3.11 |
| D1H | 4.04 |
| K14G | 3.5 |
| E30P | 3.54 |
| I6P | 3.08 |
| L8A | 3.47 |
| I6D | 3.2 |
| E4G | 3.92 |

| Variant | folding stability dG [kcal/mol] |
| --- | --- |
| A31Y | 3.62 |
| I20P | 2.65 |
| L13D | 2.97 |
| R25Q | 3.41 |
| A31R | 3.61 |
| I6K | 3.24 |
| A31Q | 3.99 |
| I36M | 3.37 |
| E3I | 3.85 |
| G23L | 4.02 |
| F42D | 2.51 |
| I20W | 3.4 |
| R40A | 3.39 |
| I6E | 3.18 |
| L21A | 3.37 |
| K14R | 3.86 |
| W38T | 2.79 |
| K14D | 3.25 |
| A12K | 3.08 |
| V24H | 3.42 |
| K14L | 3.79 |
| E15P | 3.21 |
| T27L | 3.98 |
| R40E | 2.85 |
| I26L | 3.37 |

| Variant | folding stability dG [kcal/mol] |
| --- | --- |
| R17K | 3.59 |
| S28Q | 3.13 |
| R11G | 3.19 |
| I6F | 3.48 |
| G32E | 3.22 |
| G32I | 4.12 |
| E4Y | 4.24 |
| E15T | 3.48 |
| W38Q | 2.96 |
| E7C | 4.46 |
| I36W | 3.76 |
| R40T | 3.46 |
| L21W | 3.33 |
| A12E | 3.09 |
| W34Q | 3.64 |
| E29S | 3.71 |
| L22G | 3.01 |
| E30L | 3.91 |
| E30I | 3.75 |
| I36N | 2.93 |
| R40N | 3.14 |
| E7V | 3.74 |
| R25A | 3.68 |
| E3W | 4.15 |
| L8M | 3.69 |

| Variant | folding stability dG [kcal/mol] |
| --- | --- |
| G16K | 3.53 |
| W34T | 3.45 |
| R40L | 3.83 |
| E4M | 4.01 |
| R17S | 3.27 |
| S28E | 3.23 |
| L21P | 2.6 |
| A12Q | 3.17 |
| F42W | 4.07 |
| I6T | 3.25 |
| V24I | 3.98 |
| E29N | 3.81 |
| A2T | 3.62 |
| G23T | 3.63 |
| F35M | 3.43 |
| L22T | 3.08 |
| R25W | 3.77 |
| E7N | 3.89 |
| I26Y | 3.34 |
| E18F | 3.87 |
| G23Y | 3.91 |
| G23P | 3.28 |
| S28P | 3.5 |
| K14Y | 3.31 |
| I39W | 3.23 |

| Variant | folding stability dG [kcal/mol] |
| --- | --- |
| G16S | 3.49 |
| E10S | 3.62 |
| D1Y | 4.26 |
| F35V | 3.65 |
| R11S | 3.32 |
| F35T | 2.96 |
| A31N | 3.49 |
| K14S | 3.62 |
| E18N | 3.69 |
| E37L | 3.93 |
| E15W | 3.95 |
| E18W | 3.78 |
| E3A | 3.87 |
| K14V | 3.5 |
| G32A | 4.05 |
| E18Y | 3.78 |
| I19R | 2.81 |
| I26F | 3.44 |
| T27P | 3.18 |
| E3Q | 3.94 |
| L5D | 3.02 |
| E30Y | 3.75 |
| S28I | 3.46 |
| K33E | 3.43 |
| I39G | 2.66 |

| Variant | folding stability dG [kcal/mol] |
| --- | --- |
| V9E | 2.87 |
| L13W | 3.43 |
| E37T | 3.47 |
| D1I | 4.2 |
| E10I | 4.3 |
| W38L | 3.42 |
| R41M | 3.93 |
| A2P | 3.65 |
| E3N | 3.87 |
| R17M | 3.6 |
| F35E | 2.63 |
| K14H | 3.49 |
| L21F | 3.49 |
| E4L | 4.1 |
| I39Q | 2.63 |
| K14T | 3.42 |
| L43G | 3.03 |
| V9H | 2.85 |
| S28W | 3.91 |
| I20H | 3.17 |
| F42S | 3.15 |
| I26A | 3.34 |
| R17T | 3.45 |
| R41T | 3.63 |
| E7P | 3.1 |
